# Measurements: patent publication US10428140B2, “Anti-EphA4 antibody” (EISAI R&D MANAGEMENT CO., LTD., priority 2015, dated 2019)
# Assays:
# human EphA4 = target: T1, human EphA4 (Homo sapiens, UniProt P54764); test: Affinity of humanized antibodies by SPR (Biacore T200); format: binding; settings: human EphA4 extracellular region-SEAP-His; for ka / kd: 1:1 binding model; for Kd: KD=kd/ka
# T1 construct: made in house; not restated for the human SEAP-His protein
# Method: The binding affinity of each anti-EphA4 monoclonal humanized antibody obtained in Example 16 for human EphA4 was determined by surface plasmon resonance (SPR) using Biacore T200 (GE Healthcare). First, for the assay of antibody A, a rat anti-mouse IgG1 antibody produced with a conventional method by immunizing rat with mouse IgG1 antibody was immobilized on sensor chip CM5. The immobilization of the rat anti-mouse IgG1 antibody on sensor chip CM5 was performed by the amine coupling method using N-hydroxysuccinimide (NHS) and N-ethyl-N′-(3-dimethylaminopropyl)carbodiimide hydrochloride (EDC). Ethanolamine was used in blocking (the sensor chip and the reagents for immobilization were all manufactured by GE Healthcare). The antibody was diluted with a buffer solution for immobilization (10 mM sodium acetate, pH 4.5) and immobilized on the sensor chip according to the protocol attached to Biacore T200. For the assay of each humanized monoclonal antibody, a protein A chip (GE Healthcare, 29-1383-03) was used. Antibody A or the humanized monoclonal antibody was diluted with a running buffer solution HBS-EP (GE Healthcare), injected onto only flow cell 2 for 120 seconds, and captured (captured amount: approximately 30 to 60 RU). Subsequently, human EphA4 extracellular region-SEAP-His protein serially diluted in the range of 50, 16.7, 5.6, 1.9, and 0.6 nM using HBS-EP was sequentially added from the lower toward higher concentration sides without regeneration operation. Binding reaction curves were sequentially observed at the time of the addition (association phase, for 120 sec) and after the completion of the addition (dissociation phase, for 900 sec). After the completion of each observation, the sensor chip was regenerated by the addition of 3 M MgCl2 (for 60 sec) or 10 mM Glycine-HCl pH 1.5 (for 30 sec). The obtained binding reaction curves were subjected to fitting analysis with 1:1 binding models using software BIA evaluation attached to the system to calculate the affinity (KD=kd/ka) for human EphA4 (Table 6).
# [1] = target: T2, human EphA4 (binding to human Ephrin A5) (Homo sapiens, UniProt P54764); test: Human EphA4-human ligand binding inhibition ELISA of humanized antibodies (biotinylated Ephrin A5-Fc); settings: biotinylated human Ephrin A5-Fc 0.7 nM
# T2 construct: made in house; not restated for the human SEAP-His protein
# T2 sequence (P54764 20-547): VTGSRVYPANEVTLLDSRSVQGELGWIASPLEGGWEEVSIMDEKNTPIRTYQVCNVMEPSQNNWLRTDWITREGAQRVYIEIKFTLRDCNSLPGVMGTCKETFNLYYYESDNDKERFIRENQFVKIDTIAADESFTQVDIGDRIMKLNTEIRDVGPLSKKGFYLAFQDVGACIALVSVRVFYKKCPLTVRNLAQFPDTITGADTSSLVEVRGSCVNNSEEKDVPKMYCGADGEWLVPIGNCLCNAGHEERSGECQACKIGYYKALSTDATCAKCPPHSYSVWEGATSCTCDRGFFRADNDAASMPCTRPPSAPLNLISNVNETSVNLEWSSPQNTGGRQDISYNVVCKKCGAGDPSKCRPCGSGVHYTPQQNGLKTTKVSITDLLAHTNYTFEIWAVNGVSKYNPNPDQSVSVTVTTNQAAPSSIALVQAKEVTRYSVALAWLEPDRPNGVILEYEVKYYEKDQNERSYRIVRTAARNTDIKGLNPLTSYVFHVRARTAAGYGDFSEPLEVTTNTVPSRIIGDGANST
# Method: Each anti-EphA4 monoclonal humanized antibody obtained in Example 16 was evaluated for its inhibitory activity against the binding between human EphA4 and its human ligand according to the following steps. Each well of a 96-well plate (Nunc) was coated with an anti-alkaline phosphatase antibody (Thermo Fisher Scientific). After incubation overnight at 4° C., each well was blocked with 1% BlockAce (DS Pharma Biomedical) at room temperature for 1 hour. After washing with 0.05% Tween 20/PBS (Thermo Fisher Scientific) three times, the human EphA4 extracellular region-SEAP-His protein obtained by the method of Example 2 was added (final concentration: 10 nM) to each well and incubated at room temperature for 1 hour. After washing three times, a ligand and each serially diluted humanized antibody of antibody A (0, 0.003, 0.01, 0.03, 0.1, 0.3, 1, 3, 10, 30, 100, 300, 1000, and 3000 nM) were added to each well. The ligand used was biotinylated human Ephrin A5-Fc chimera (R&D Systems, final concentration: 0.7 nM). After incubation at room temperature for 1 hour and subsequent washing three times, horseradish peroxidase-labeled streptavidin (GE Healthcare) was added thereto and incubated at room temperature for 1 hour. After washing three times, a TMBZ (3,3′,5,5′-tetramethylbenzidine, Sigma-Aldrich) solution was added to each well and incubated at room temperature for 2 minutes. An equal amount of a reaction stopping solution (1N H2SO4, Wako Pure Chemical Industries) was added to each well. The absorbance at 450 nm was read using a microplate reader (PerkinElmer).
# T1 sequence (P54764 20-547): as above
Molecule,ka (human EphA4) [M⁻¹ s⁻¹],kd (human EphA4) [s⁻¹],Kd (human EphA4) [nM],IC50 [1] [nM]
"antibody A: mouse anti-EphA4 monoclonal antibody, IgG1/κ; heavy chain variable region SEQ ID NO: 11, light chain variable region SEQ ID NO: 13 (antibody, listed as Mus musculus, V domains shown) VH: QIQLVQSGPELKKPGETVKISCKASGYTFTDYSMHWVKQAPGKGLKWMGWINTETGEPTYADDFKGRFAFSLETSASTAYLQINNLKNEDTATYFCARIPLYYYGSRYWYFDVWGAGTTVTVSS VL: DIQMTQSPASLSVSVGETVTITCRASENIYRNLAWYQQKQGKSPQLLVYAATNLADGVPSRFSGSGSGTQYSLKINSLQSEDFGSYYCQHFWGTPWTFGGGTKLEIK",420000,0.00025,–,–
"83 (antibody, V domains shown, constant regions without entry; synthetic humanized antibody light chain variable region sequence; synthetic humanized antibody heavy chain variable region sequence) VL: DIQMTQSPSSLSASVGDRVTITCRASENIYRNLAWYQQKPGKAPKLLLYAATNLADGVPSRFSGSGSGTDYTLTISSLQSEDFATYYCQHFWGTPWTFGQGTKVEIK VH: QIQLVQSGSELKKPGASVKVSCKASGYTFTDYSMHWVRQAPGQGLKWMGWINTETGEPTYAQGFTGRFVFSLDTSVSTAYLQISSLKAEDTAVYYCARIPLYYYGSRYWYFDVWGQGTTVTVSS",290000,0.00054,1.9,3.7
"82 (antibody, V domains shown, constant regions without entry; synthetic humanized antibody light chain variable region sequence; synthetic humanized antibody heavy chain variable region sequence) VL: DIQMTQSPSSLSASVGDRVTITCRASENIYRNLAWYQQKPGKAPKLLLYAATNLADGVPSRFSGSGSGTDYTLTISSLQSEDFATYYCQHFWGTPWTFGQGTKVEIK VH: QVQLVQSGSELKKPGASVKVSCKASGYTFTDYSMHWVRQAPGQGLKWMGWINTETGEPTYAQGFTGRFVFSLDTSVSTAYLQISSLKAEDTAVYYCARIPLYYYGSRYWYFDVWGQGTTVTVSS",290000,0.00046,1.6,4.1
"84 (antibody, V domains shown, constant regions without entry; synthetic humanized antibody light chain variable region sequence; synthetic humanized antibody heavy chain variable region sequence) VL: DIQMTQSPSSLSASVGDRVTITCRASENIYRNLAWYQQKPGKAPKLLLYAATNLADGVPSRFSGSGSGTDYTLTISSLQSEDFATYYCQHFWGTPWTFGQGTKVEIK VH: QVQLVQSGSELKKPGASVKVSCKASGYTFTDYSMHWVRQAPGQGLEWMGWINTETGEPTYADDFKGRFVFSLDTSVSTAYLQISSLKAEDTAVYYCARIPLYYYGSRYWYFDVWGQGTTVTVSS",350000,0.00056,1.7,4.6
"85 (antibody, V domains shown, constant regions without entry; synthetic humanized antibody light chain variable region sequence; synthetic humanized antibody heavy chain variable region sequence) VL: DIQMTQSPSSLSASVGDRVTITCRASENIYRNLAWYQQKPGKAPKLLLYAATNLADGVPSRFSGSGSGTDYTLTISSLQSEDFATYYCQHFWGTPWTFGQGTKVEIK VH: QVQLVQSGSELKKPGASVKVSCKASGYTFTDYSMHWVRQAPGQGLKWMGWINTETGEPTYADDFKGRFVFSLDTSVSTAYLQISSLKAEDTAVYYCARIPLYYYGSRYWYFDVWGQGTTVTVSS",310000,0.0005,1.6,4
"81 (antibody, V domains shown, constant regions without entry; synthetic humanized antibody light chain variable region sequence; synthetic humanized antibody heavy chain variable region sequence) VL: DIQMTQSPSSLSASVGDRVTITCRASENIYRNLAWYQQKPGKAPKLLLYAATNLADGVPSRFSGSGSGTDYTLTISSLQSEDFATYYCQHFWGTPWTFGQGTKVEIK VH: QVQLVQSGSELKKPGASVKVSCKASGYTFTDYSMHWVRQAPGQGLEWMGWINTETGEPTYAQGFTGRFVFSLDTSVSTAYLQISSLKAEDTAVYYCARIPLYYYGSRYWYFDVWGQGTTVTVSS",340000,0.00054,1.6,4

# More lines, in order of falling IC50 [1], values ahead:
ka (human EphA4) [M⁻¹ s⁻¹],kd (human EphA4) [s⁻¹],Kd (human EphA4) [nM],IC50 [1] [nM],Molecule
340000,0.00037,1.1,3.1,"69 (antibody, V domains shown, synthetic humanized antibody heavy chain variable region sequence; synthetic humanized antibody light chain variable region sequence) VH: QIQLVQSGSELKKPGASVKVSCKASGYTFTDYSMHWVRQAPGQGLKWMGWINTETGEPTYADDFKGRFVFSLDTSVSTAYLQISSLKAEDTAVYYCARIPLYYYGSRYWYFDVWGQGTTVTVSS VL: DIQMTQSPSSLSASVGDRVTITCRASENIYRNLAWYQQKPGKAPKLLVYAATNLADGVPSRFSGSGSGTDYTLTISSLQPEDFATYYCQHFWGTPWTFGQGTKVEIK"
–,–,–,2.5,"136 (antibody, V domains shown, synthetic humanized antibody heavy chain variable region sequence; synthetic humanized antibody light chain variable region sequence) VH: QVQLVQSGSELKKPGASVKVSCKASGYTFTDYSMHWVRQAPGQGLKWMGWINTETGEPTYADDFKGRFVFSLDTSVSTAYLQISSLKAEDTAVYYCARIPLYYYGSRYWYFDVWGQGTTVTVSS VL: EIVMTQSPATLSVSPGERATLSCRASENIYRNLAWYQQKPGQSPRLLIYAATNLADGIPARFSGSGSGTEYTLTISSLQSEDFAVYYCQHFWGTPWTFGQGTKVEIK"
–,–,–,2.5,"156 (antibody, V domains shown, synthetic humanized antibody heavy chain variable region sequence; synthetic humanized antibody light chain variable region sequence) VH: QIQLVQSGSELKKPGASVKVSCKASGYTFTDYSMHWVRQAPGQGLKWMGWINTETGEPTYAQGFTGRFVFSLDTSVSTAYLQISSLKAEDTAVYYCARIPLYYYGSRYWYFDVWGQGTTVTVSS VL: DIQMTQSPSSLSASVGDRVTITCRASENIYRNLAWYQQKPGKAPQLLLYAATNLADGVPSRFSGSGSGTDYTLTISSLQPEDFATYYCQHFWGTPWTFGQGTKVEIK"
